Laboratory results from publication PMC7961039, “Musashi-2 (MSI2) regulates epidermal growth factor receptor (EGFR) expression and response to EGFR inhibitors in EGFR-mutated non-small cell lung cancer (NSCLC)”.

Target: Musashi-2 (MSI2) (UniProt Q96DH6 1-328)
Experiment: EMSA; 10 mM HEPES pH 7.6, 20 mM KCl, 1 mM MgCl2, 1 mM DTT, 5% glycerol, protease inhibitors, 2 ug tRNA, 20 U SUPERase-In, 20 ul, 50 ng MSI2, 20 ng RNA, 25 C; 8% PAGE
Details: protein: recombinant; label: 5'-32P

Sequence of Musashi-2 (MSI2) (Q96DH6 whole entry): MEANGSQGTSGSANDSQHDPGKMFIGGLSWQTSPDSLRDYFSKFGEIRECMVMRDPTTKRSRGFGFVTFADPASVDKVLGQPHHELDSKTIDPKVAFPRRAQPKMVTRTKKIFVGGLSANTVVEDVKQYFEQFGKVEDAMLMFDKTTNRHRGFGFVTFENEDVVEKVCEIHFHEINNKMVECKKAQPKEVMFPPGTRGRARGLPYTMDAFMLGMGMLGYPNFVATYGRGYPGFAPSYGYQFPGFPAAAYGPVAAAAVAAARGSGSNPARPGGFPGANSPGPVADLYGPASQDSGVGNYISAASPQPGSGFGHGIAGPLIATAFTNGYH

Binder | binding result
GGUCCCAAGCCAAGCCUUAAGU (ssRNA) [Negative Control oligo] | no binding
UAACUUCGUUUUAGAAACAUUCAAG (ssRNA) [EGFR Oligo 2 wt] | binds
GCAGAUGUUUUAGAAGGAAAAA (ssRNA) [EGFR Oligo 1 wt] | binds
GUAGUAGUAGUAGUA (ssRNA) [Positive Control oligo] | binds
